Target: endogenous Akt (UniProt P31749)
Assay: cell-based or functional assay

Sequence of endogenous Akt (P31749 whole entry): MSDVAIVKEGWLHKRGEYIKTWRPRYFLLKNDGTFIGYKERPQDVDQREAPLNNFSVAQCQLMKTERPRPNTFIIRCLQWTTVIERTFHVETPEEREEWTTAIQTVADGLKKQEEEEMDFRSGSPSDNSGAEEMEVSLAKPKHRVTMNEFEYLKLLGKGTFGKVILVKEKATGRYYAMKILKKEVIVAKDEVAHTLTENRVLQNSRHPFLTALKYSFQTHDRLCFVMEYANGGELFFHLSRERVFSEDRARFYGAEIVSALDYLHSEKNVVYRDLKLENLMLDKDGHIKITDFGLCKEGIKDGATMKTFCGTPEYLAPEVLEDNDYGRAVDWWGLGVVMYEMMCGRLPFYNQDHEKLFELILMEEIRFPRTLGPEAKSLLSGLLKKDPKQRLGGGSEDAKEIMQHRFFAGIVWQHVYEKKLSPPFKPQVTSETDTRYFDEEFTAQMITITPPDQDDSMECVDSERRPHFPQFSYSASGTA

increase in Akt phosphorylation at Ser 473 on siRNA knock down of PHLPP2 in 293T cells [fold]	increase in Ser473 phosphorylation on siRNA knock down of PHLPP2 in H157 cells [fold]	Substance
2		endogenous PHLPP2 (from UniProt Q6ZVD8 1-1323)
	4	endogenous PHLPP2 (from UniProt Q6ZVD8 1-1323) (enzyme)
